Target: OGG1 (8-oxoguanine DNA glycosylase) (UniProt O15527 1-345)
Experiment: EMSA; EMSA: DNA-binding buffer (composition not given), 10 min on ice then 10 min at 37 C, 7% native PAGE in 1x TBE; pull-down: 4 C, 12 h, 1 mM PMSF, PBS washes
Details: protein: commercial; label: 5'-FAM on strand 2; blunt

Chain of OGG1 (8-oxoguanine DNA glycosylase) (O15527 whole entry): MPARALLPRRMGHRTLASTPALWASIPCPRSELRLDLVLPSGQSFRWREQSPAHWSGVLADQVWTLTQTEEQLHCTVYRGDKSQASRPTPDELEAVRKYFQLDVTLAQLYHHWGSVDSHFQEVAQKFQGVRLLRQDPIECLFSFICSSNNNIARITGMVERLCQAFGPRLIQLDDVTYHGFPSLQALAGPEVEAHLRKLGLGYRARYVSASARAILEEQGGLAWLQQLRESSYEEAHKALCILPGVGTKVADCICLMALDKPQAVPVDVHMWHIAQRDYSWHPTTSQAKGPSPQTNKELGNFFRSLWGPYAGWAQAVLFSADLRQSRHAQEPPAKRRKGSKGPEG

B1: 8-oxoG-SYT7 (FAM) (dsDNA)
DNA 1: CGGGCGGGCGGGAGGGCTGGCGGGCGGCCCCC
DNA 2: GGGGGCCGCCCGCCAGCCCTCCCGCCCGCCCG
modifications: 8-oxoG at position 12 of strand 1 (printed ...CGGoGAGGG...)
B1: binds.
